In publication PMC5436847:
pKd: −log10 of the molar value.

Experiments:
[1] = system: P34 F141A (Trypanosoma brucei); test: filter binding; details: Filter binding: 10 mM Tris pH 7.4, 1 mM EDTA, 100 mM NaCl, 100 ug/ml BSA, 30 min, room temperature; 0.05 nM 5S rRNA, 0-300 nM protein; Bmax fixed at 100%
[2] = system: P34 N-terminus-RRM1 (lacks RRM2 and C-terminus) (Trypanosoma brucei); test: filter binding; details: Filter binding: 10 mM Tris pH 7.4, 1 mM EDTA, 100 mM NaCl, 100 ug/ml BSA, 30 min, room temperature; 0.05 nM 5S rRNA, 0-300 nM protein; Bmax fixed at 100%
[3] = system: P34 N-terminus-RRM1-RRM2 (lacks C-terminus) (Trypanosoma brucei); test: filter binding; details: Filter binding: 10 mM Tris pH 7.4, 1 mM EDTA, 100 mM NaCl, 100 ug/ml BSA, 30 min, room temperature; 0.05 nM 5S rRNA, 0-300 nM protein; Bmax fixed at 100%
[4] = system: P34 R91A, Y92A (Trypanosoma brucei); test: filter binding; details: Filter binding: 10 mM Tris pH 7.4, 1 mM EDTA, 100 mM NaCl, 100 ug/ml BSA, 30 min, room temperature; 0.05 nM 5S rRNA, 0-300 nM protein; Bmax fixed at 100%
[5] = system: P34 RRM1 (Trypanosoma brucei); test: filter binding; details: Filter binding: 10 mM Tris pH 7.4, 1 mM EDTA, 100 mM NaCl, 100 ug/ml BSA, 30 min, room temperature; 0.05 nM 5S rRNA, 0-300 nM protein; Bmax fixed at 100%
[6] = system: P34 RRM1-RRM2 (Trypanosoma brucei); test: filter binding; details: Filter binding: 10 mM Tris pH 7.4, 1 mM EDTA, 100 mM NaCl, 100 ug/ml BSA, 30 min, room temperature; 0.05 nM 5S rRNA, 0-300 nM protein; Bmax fixed at 100%
[7] = system: P34 RRM2 (Trypanosoma brucei); test: filter binding; details: Filter binding: 10 mM Tris pH 7.4, 1 mM EDTA, 100 mM NaCl, 100 ug/ml BSA, 30 min, room temperature; 0.05 nM 5S rRNA, 0-300 nM protein; Bmax fixed at 100%
[8] = system: P34 Y174A (Trypanosoma brucei); test: filter binding; details: Filter binding: 10 mM Tris pH 7.4, 1 mM EDTA, 100 mM NaCl, 100 ug/ml BSA, 30 min, room temperature; 0.05 nM 5S rRNA, 0-300 nM protein; Bmax fixed at 100%
[9] = system: P34 Y176A (Trypanosoma brucei); test: filter binding; details: Filter binding: 10 mM Tris pH 7.4, 1 mM EDTA, 100 mM NaCl, 100 ug/ml BSA, 30 min, room temperature; 0.05 nM 5S rRNA, 0-300 nM protein; Bmax fixed at 100%
[10] = system: P34 Y60A (Trypanosoma brucei); test: filter binding; details: Filter binding: 10 mM Tris pH 7.4, 1 mM EDTA, 100 mM NaCl, 100 ug/ml BSA, 30 min, room temperature; 0.05 nM 5S rRNA, 0-300 nM protein; Bmax fixed at 100%
[11] = system: P34 Y92A (Trypanosoma brucei); test: filter binding; details: Filter binding: 10 mM Tris pH 7.4, 1 mM EDTA, 100 mM NaCl, 100 ug/ml BSA, 30 min, room temperature; 0.05 nM 5S rRNA, 0-300 nM protein; Bmax fixed at 100%
[12] = system: P34 full length (WT) (Trypanosoma brucei); test: filter binding; details: Filter binding: 10 mM Tris pH 7.4, 1 mM EDTA, 100 mM NaCl, 100 ug/ml BSA, 30 min, room temperature; 0.05 nM 5S rRNA, 0-300 nM protein; Bmax fixed at 100%
[13] = molecular target: P34 N-terminus-RRM1 truncate (P34 lacking both RRM2 and the C-terminus) (Trypanosoma brucei); test: co-IP; immune capture: beads coated with anti-P34/P37 antibody incubated with the recombinant proteins (1 μg each) for 1 hr at 4°C, washed three times in PBS-T, eluted in SDS sample buffer; bound L5 (pellet) detected by western blot with anti-L5 antibody; pellet signal normalised to L5 + P34 FL, set to 1; at least three biological replicates
[14] = molecular target: P34 N-terminus-RRM2 truncate (P34 lacking the C-terminus) (Trypanosoma brucei); test: as above
[15] = molecular target: P34 R88-91A mutated protein (Trypanosoma brucei); test: as above
[16] = molecular target: P34 R88-91K mutated protein (Trypanosoma brucei); test: as above
[17] = molecular target: P34 R91A mutated protein (Trypanosoma brucei); test: as above
[18] = molecular target: P34 R91A, Y92A mutated protein (Trypanosoma brucei); test: as above
[19] = molecular target: P34 RRM1 truncate protein (Trypanosoma brucei); test: as above
[20] = molecular target: P34 RRM1-RRM2 truncate (the RRM domains alone) (Trypanosoma brucei); test: as above
[21] = molecular target: P34 RRM2 truncate protein (Trypanosoma brucei); test: as above

Substance: 5S rRNA
- binding signal (fold affinity increase vs WT) [1]: 2
- pKd [2]: 6.99
- pKd [3]: 7.18
- binding signal (fold affinity increase vs WT) [4]: 2
- pKd [5]: 7.16
- pKd [6]: 7.17
- pKd [7]: 6.53
- binding signal (fold affinity increase vs WT) [8]: 2
- binding signal (fold affinity increase vs WT) [9]: 2
- binding signal (fold affinity increase vs WT) [10]: 2
- binding signal (fold affinity increase vs WT) [11]: 2
- pKd [12]: 7.52

Substance: ribosomal protein L5 (natural protein)
- amount of L5 bound relative to P34 full length (set as 1) (relative to P34 full length = 1) [13]: 0.93
- amount of L5 bound relative to P34 full length (set as 1) (relative to P34 full length = 1) [14]: 1.1
- amount of L5 bound relative to P34 WT (set as 1) (relative to P34 WT = 1) [15]: 0.45
- amount of L5 bound relative to P34 WT (set as 1) (relative to P34 WT = 1) [16]: 0.75
- amount of L5 bound relative to P34 WT (set as 1) (relative to P34 WT = 1) [17]: 1.3
- amount of L5 bound relative to P34 WT (set as 1) (relative to P34 WT = 1) [18]: 1.5
- amount of L5 bound relative to P34 full length (set as 1) (relative to P34 full length = 1) [19]: 0.65
- amount of L5 bound relative to P34 full length (set as 1) (relative to P34 full length = 1) [20]: 0.64
- amount of L5 bound relative to P34 full length (set as 1) (relative to P34 full length = 1) [21]: 0.54
